Here are results for one molecule from patent US7981423B2, “Rage fusion proteins” (Transtech Pharma, Inc., priority 2004, dated 2011).

The series has as its target T1, amyloid-beta (Abeta) (Homo sapiens, UniProt P05067).
T1 construct: Amyloid Beta (1-40) from Biosource; purchased Biosource
Put plainly: In vitro ligand binding ELISA, immobilized amyloid-beta. The following applies: various dilutions of fusion protein; FIG. 7. The method, then: For example, the RAGE fusion protein may be used in a binding assay to identify potential RAGE ligands. In one example embodiment of such a binding assay, a known RAGE ligand may coated onto a solid substrate (e.g., Maxisorb plates) at a concentration of about 5 micrograms per well, where each well contains a total volume of about 100 microliters (μL). The plates may be incubated at 4° C. overnight to allow the ligand to absorb. Alternatively, shorter incubation periods at higher temperature (e.g., room temperature) may be used. […] The fusion protein bound to the immobilized ligand may be detected in a variety of ways. […] The bound complex may be detected by adding the alkaline phosphatase substrate, para-nitrophenylphosphate (PNPP), and measuring conversion of PNPP to para-nitrophenol (PNP) as an increase in absorbance at 405 nm. […] Binding was detected by the addition of an immunodetection complex containing a monoclonal mouse anti-human IgG1 diluted 1:11,000 to a final assay concentration (FAC) of 21 ng/100 μL, a biotinylated goat anti-mouse IgG diluted 1:500, to a FAC of […], and an avidin-linked alkaline phosphatase. […] Binding of the complex to the immobilized fusion protein was quantified by measuring conversion of PNPP to para-nitrophenol (PNP) which was-measured spectrophotornetrically at 405 nm. […]
A general note: ELISA stands for enzyme-linked immunosorbent assay.

T1 sequence (P05067 672-711 limits assumed): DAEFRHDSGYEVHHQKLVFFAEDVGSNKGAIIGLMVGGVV

B1: TTP-4000: four domain RAGE fusion protein (SEQ ID NO: 32): human RAGE amino acids 1-251 linked to CH2 and CH3 domains of human IgG (protein)
chain: MAAGTAVGAWALVLSLWGAVVGAQNITARIGEPLVLKCKGAPKKPPQRLEWKLNTGRTEAWKVLSPQGGGPWDSVARVLPNGSLFLPAVGIQDEGIFRCQAMNRNGKETKSNYRVRVYQIPGKPEIVDSASELTAGVPNKVGTCVSEGSYPAGTLSWHLDGKPLVPNEKGVSVKEQTRRHPETGLFTLQSELMVTPARGGDPRPTFSCSFSPGLPRHRALRTAPIQPRVWEPVPLEEVQLVVEPEGGAVAPPSVFLFPPKPKDTLMISRTPEVTCVVVDVSHEDPEVKFNWYVDGVEVHNAKTKPREEQYNSTYRVVSVLTVLHQDWLNGKEYKCKVSNKALPAPIEKTISKAKGQPREPQVYTLPPSRDELTKNQVSLTCLVKGFYPSDIAVEWESNGQPENNYKTTPPVLDSDGSFFLYSKLTVDKSRWQQGNVFSCSVMHEALHNHYTQKSLSLSPGK
B1: the “binding to immobilized amyloid-beta (absorbance at 405 nm)” value is “specifically interact”.
